Measurements from US20240398896A1, “INFLAMMASOME INHIBITION” (National University of Singapore, priority 2021, published 2024).

Assays:
AIM2 inflammasome [1] = biological target: T1, AIM2 inflammasome (Homo sapiens, UniProt Q9ULZ3); test: ASC speck formation in HEK293T cells reconstituted with human AIM2-mCitrine and human ASC-mPlum (ImageStream); type: cell-based; set-up: expressed in transfected cells; host or cells: HEK293T; conditions: FIG. 3D
From the text: (§1) Inflammasome activation assays.
ImageStream imaging flow cytometry. […] Nuclei were stained with DAPI.

[2] = system: H1N1 IAV, strain A/NWS/33; type: in vivo, mouse
NLRP3 inflammasome [3] = biological target: T2, NLRP3 inflammasome (Homo sapiens, UniProt Q9ULZ3); test: Inflammasome activation in LPS-primed THP-1 macrophages stably expressing ASC2, stimulated with MSU crystals; type: cell-based; set-up: endogenous in cells; host or cells: THP-1 macrophages (PMA-differentiated, LPS-primed); conditions: LPS 3 h, MSU crystals 4 h
T2 sequence (Q9ULZ3 whole entry): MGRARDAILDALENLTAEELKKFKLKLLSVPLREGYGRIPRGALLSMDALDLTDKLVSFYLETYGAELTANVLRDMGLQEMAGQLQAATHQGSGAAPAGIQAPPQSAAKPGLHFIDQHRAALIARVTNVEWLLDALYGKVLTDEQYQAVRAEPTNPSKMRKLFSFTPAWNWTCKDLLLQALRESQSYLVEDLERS
From the text: (§2) Generation of THP-1 and IMACs stable cells. […] Single cell clones were generated for THP-1 cells stably expressing ASC2-LSSmOrange.
as §1

[4] = system: Pteropine orthoreovirus 3 (PRV3M); type: cell-based, mouse; conditions: bat ASC2/rtTA vs WT BMDMs
[5] = system: peritonitis induced by MSU crystals; test: Peritonitis induced by MSU crystals in bat ASC2/rtTA mice; type: in vivo, mouse; conditions: bat ASC2/rtTA vs WT mice, oral Dox 7 days, 200 μg MSU crystals i.p., 4 h
AIM2 inflammasome [6] = biological target: T1, AIM2 inflammasome; test: Inflammasome activation in LPS-primed THP-1 macrophages stably expressing ASC2, transfected with poly(dA:dT); type: cell-based; set-up: endogenous in cells; host or cells: THP-1 macrophages (PMA-differentiated, LPS-primed, poly(dA:dT)-transfected); conditions: LPS 3 h, poly(dA:dT) 4 h
From the text: as §2, §1

IAV = type: cell-based, mouse
NLRP3 inflammasome [7] = biological target: T3, NLRP3 inflammasome (Mus musculus, UniProt Q9EPB4); test: Inflammasome activation in LPS-primed BMDMs of bat ASC2/rtTA mice stimulated with MSU crystals; type: cell-based; set-up: endogenous in cells; host or cells: BMDMs of C57BL/6 wild-type and bat ASC2/rtTA mice; conditions: Dox, LPS 3 h, MSU 16 h, FIG. 6D, 6E
T3 sequence (Q9EPB4 1-193): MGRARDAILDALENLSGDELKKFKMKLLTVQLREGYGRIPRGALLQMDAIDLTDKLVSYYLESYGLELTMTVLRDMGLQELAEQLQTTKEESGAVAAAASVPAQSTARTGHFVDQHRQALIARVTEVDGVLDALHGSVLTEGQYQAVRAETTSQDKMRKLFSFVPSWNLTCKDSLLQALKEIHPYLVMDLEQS
From the text: as §1

Zika virus (ZIKV) = type: cell-based, mouse; conditions: bat ASC2/rtTA vs WT BMDMs, ZIKV MOI=1, 24 h, Dox; FIG. 10F
bat ASC = test: Co-immunoprecipitation of ASC2-His with bat ASC-Flag from HEK293T cells; type: binding; conditions: 0.25 μg bat or hupa4 ASC2 vs 3 μg human ASC2 transfected, FIG. 26B
Description: (§3) Co-immunoprecipitation. HEK293T cells were transfected in 6-well plate with plasmids encoding His-tagged empty vector (His alone), bat ASC2, human ASC2, and Hupa4 ASC2 along with Flag-tagged human or bat ASC. 3 μg human ASC2, in contrast to 0.25 μg control, bat or hupa4 ASC2, were transfected to normalize the expression. At 48 h post-transfection, cells were lysed in IP lysis buffer (Pierce) according to manufacturer's protocol and centrifuged at 500 g for 10 minutes at 4° C. The supernatants were subjected to immunoprecipitation by incubation for 16 hours at 4° C. with anti-Flag (Sigma) incubated magnetic beads, followed by washing three times with TBS containing 0.05% Tween 20 and once with purified water. Bound proteins were separated by 15% SDS-PAGE, followed by immunoblotting analysis with the indicated antibodies.

human ASC = biological target: T4, human ASC (Homo sapiens, UniProt Q9ULZ3); test: Co-immunoprecipitation of ASC2-His with human ASC-Flag from HEK293T cells; type: binding; conditions: 0.25 μg bat or hupa4 ASC2 vs 3 μg human ASC2 transfected, FIG. 26A
T4 construct: expressed in transfected cells; host or cells: HEK293T
T4 sequence (Q9ULZ3 whole entry): as the sequence (Q9ULZ3 whole entry) above
Description: as §3

NLRP3 inflammasome [8] = biological target: T2, NLRP3 inflammasome; test: Inflammasome activation in LPS-primed THP-1 macrophages stably expressing ASC2, stimulated with nigericin; type: cell-based; set-up: endogenous in cells; host or cells: THP-1 macrophages (PMA-differentiated, LPS-primed); conditions: THP-1 macrophages, ASC2-LSSmOrange, LPS 3 h
From the text: as §2, §1
ImageStream imaging flow cytometry.

T1 sequence (Q9ULZ3 whole entry): as the sequence (Q9ULZ3 whole entry) above

B1: bat ASC2: ASC2 (PYRIN-only protein) of the bat Pteropus alecto, SEQ ID NO:11; expressed from vectors or as Dox-inducible transgene (protein)
chain: MGKKRDAILEALENLTADELKKFKLKLGAAPLRQGFRNIPRGALGPLDAVDLTDKLVAFYCEDYGAELTAVVLRDIGMQEEAERLQGVA
In the case of B1, the “ASC speck formation (human AIM2 inflammasome activation)” value (AIM2 inflammasome [1]; HEK293T, human AIM2-mCitrine, human ASC-mPlum, ASC2-LSSmOrange) is reported as “suppressed the activation”, the “Potency in inhibiting human AIM2 inflammasome compared with human ASC2” value (AIM2 inflammasome [1]; expression normalized by gating equal signal intensity) is reported as “significantly more potent” and the “Level of IL-1β in lung tissue extracts” value ([2]; 3 dpi, bat ASC2/rtTA vs WT mice, FIG. 10B) is reported as “significantly reduced”. For the same molecule, the Lung viral titres ([2]; 3 dpi, bat ASC2/rtTA vs WT mice, FIG. 10C) was “no significant different”, the Mortality ([2]; bat ASC2/rtTA mice, IAV 0.5×10^5 pfu intranasal one day after Dox, 14 days post-infection, 100% of WT mice succumbed) was 50% and the “Cell death (LDH release)” value (NLRP3 inflammasome [3]; FIG. 4D) was “inhibited”. For the same molecule, the IL-1β secretion (NLRP3 inflammasome [3]; FIG. 4E) was “inhibited”, the “IL-1β secretion triggered by PRV3M” value ([4]; LPS 3 h, PRV3M MOI=5, 24 h, Dox, FIG. 10G) was “substantially inhibited” and the “Viral load for PRV3M” value ([4]; MOI=5, 24 h, FIG. 10E) was “without affecting the viral load”. The “Recruitment of neutrophils and inflammatory monocytes (peritoneal lavage)” value ([5]; FIG. 8B, 8C) was “significantly reduced”, the “IL-1β release in the peritoneal lavage” value ([5]; FIG. 8D) was “decreased” and the “Cell death (LDH release)” value (AIM2 inflammasome [6]; FIG. 3G) was “inhibited”. The IL-1β secretion (AIM2 inflammasome [6]; FIG. 3H) was “inhibited”, the “In vitro IL-1β response to IAV infection” value (IAV) was “significantly lower” and the “Viral titres in supernatants” value (IAV) was “no obvious difference”. The “Activation of NLRP3 inflammasome (LDH release, IL-1β)” value (NLRP3 inflammasome [7]) was “suppressed the activation”, the “IL-1β secretion triggered by ZIKV” value (Zika virus (ZIKV)) was “substantially inhibited” and the “Interaction with bat ASC (co-IP)” value (bat ASC) was “interact with bat ASC more strongly than human ASC2”. The “Interaction with human ASC (co-IP)” value (human ASC) was “interact strongly with human ASC”, the “Pyroptotic cell death (LDH release)” value (NLRP3 inflammasome [8]; nigericin 2 h, compared with human ASC2, FIG. 3E) was “significantly more downstream inhibition” and the “Secretion of IL-1β in the supernatants” value (NLRP3 inflammasome [8]; nigericin 2 h, compared with human ASC2, FIG. 3F) was “significantly more downstream inhibition”. The “Induction of ASC specks” value (NLRP3 inflammasome [8]; nigericin, FIG. 4B, 4C) was “inhibited the induction of ASC specks more potently than human ASC2”.
